The values that follow come from patent publication US20190127457A1 (Hoffmann-La Roche, published 2019).

This test has as its target T1, human neonatal Fc-receptor (FcRn) (human, UniProt P55899 24-297; P61769 21-119).
T1 construct: also called human FcRn; huFcRn
In words: symmetric HHY-AAA mutation.

T1 sequence (P55899 24-297 limits assumed, chain 1 of 2): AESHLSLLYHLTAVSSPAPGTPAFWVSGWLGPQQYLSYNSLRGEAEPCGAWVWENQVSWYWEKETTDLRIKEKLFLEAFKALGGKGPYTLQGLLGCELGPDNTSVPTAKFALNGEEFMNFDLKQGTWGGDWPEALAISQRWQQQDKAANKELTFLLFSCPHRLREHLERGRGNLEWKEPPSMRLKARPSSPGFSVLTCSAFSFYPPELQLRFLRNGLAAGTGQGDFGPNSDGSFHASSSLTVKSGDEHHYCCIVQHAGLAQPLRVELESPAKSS
T1 sequence (P61769 21-119 limits assumed, chain 2 of 2): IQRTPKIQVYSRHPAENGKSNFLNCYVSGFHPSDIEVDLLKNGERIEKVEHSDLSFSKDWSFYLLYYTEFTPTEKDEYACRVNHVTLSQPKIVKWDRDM

B1: IGF-1R 0045 (antibody, human IgG1, kappa)
light: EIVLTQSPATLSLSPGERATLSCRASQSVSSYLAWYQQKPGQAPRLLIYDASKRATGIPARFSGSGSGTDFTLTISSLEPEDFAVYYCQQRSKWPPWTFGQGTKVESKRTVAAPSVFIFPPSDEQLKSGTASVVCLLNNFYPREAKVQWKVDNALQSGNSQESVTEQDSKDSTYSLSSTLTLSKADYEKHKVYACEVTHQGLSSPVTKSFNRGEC
heavy: QVELVESGGGVVQPGRSQRLSCAASGFTFSSYGMHWVRQAPGKGLEWVAIIWFDGSSTYYADSVRGRFTISRDNSKNTLYLQMNSLRAEDTAVYFCARELGRRYFDLWGRGTLVSVSSASTKGPSVFPLAPSSKSTSGGTAALGCLVKDYFPEPVTVSWNSGALTSGVHTFPAVLQSSGLYSLSSVVTVPSSSLGTQTYICNVNHKPSNTKVDKKVEPKSCDKTHTCPPCPAPELLGGPSVFLFPPKPKDTLMISRTPEVTCVVVDVSHEDPEVKFNWYVDGVEVHNAKTKPREEQYNSTYRVVSVLTVLAQDWLNGKEYKCKVSNKALPAPIEKTISKAKGQPREPQVYTLPPSRDELTKNQVSLTCLVKGFYPSDIAVEWESNGQPENNYKTTPPVLDSDGSFFLYSKLTVDKSRWQQGNVFSCSVMHEALANHATQKSLSLSPG
notes: Roles inferred; also called <IGF-1R> IgG1 with H310A, H433A, Y436A; anti-IGF-1R IgG1 with HHY-AAA mutation
Consider B1, for which the binding result is recorded as “no binding”.
